# Numbering of substitutions follows the chain as printed.
# B1: TPP-30791 (antibody, human IgG1, kappa, V domains shown)
# VH: EVQLVESGGGLLQLGGSLRLSCAASGFTFSSYYMSWVRQAPGKGLEWVSTIIKSGGYAYYPDSVKDRFTISRDNSKNTLNLQMNSLRAEDTAVYYCVKGGQGAMDYWGQGTTVTVSS
# VL: EIVLTQSPATLSLSPGERATLSCRASQSIGDYLHWYQQKPGQAPRLLIKYASQSISGIPARFSGSGSGTDFTLTISSLEPEDFAVYYCQQGYSFPYTFGGGTKLEIKR
# B2: TPP-30790 (antibody, human IgG1, kappa, V domains shown)
# VH: B1 VH with L12V, N80Y
# VL: B1 VL with K49Y
# B3: TPP-30788 (antibody, human IgG1, kappa, V domains shown)
# VH: B1 VH with L12V, L14P, N80Y, N84S, K98R
# VL: B1 VL with S76T
# B4: TPP-30789 (antibody, human IgG1, kappa, V domains shown)
# VH: B1 VH with L12V, L14P, T28P, N80Y, N84S, K98R
# VL: B1 VL with S76T
# Biological target: Human Semaphorin3G (Abnova) (human) (UniProt Q9NS98)
# Assay: ELISA, coated GST-Sema3G, antibody 0.00015-10 ug/ml
# Human Semaphorin3G (Abnova) (human), sequence (Q9NS98 23-782 limits assumed, form in doubt): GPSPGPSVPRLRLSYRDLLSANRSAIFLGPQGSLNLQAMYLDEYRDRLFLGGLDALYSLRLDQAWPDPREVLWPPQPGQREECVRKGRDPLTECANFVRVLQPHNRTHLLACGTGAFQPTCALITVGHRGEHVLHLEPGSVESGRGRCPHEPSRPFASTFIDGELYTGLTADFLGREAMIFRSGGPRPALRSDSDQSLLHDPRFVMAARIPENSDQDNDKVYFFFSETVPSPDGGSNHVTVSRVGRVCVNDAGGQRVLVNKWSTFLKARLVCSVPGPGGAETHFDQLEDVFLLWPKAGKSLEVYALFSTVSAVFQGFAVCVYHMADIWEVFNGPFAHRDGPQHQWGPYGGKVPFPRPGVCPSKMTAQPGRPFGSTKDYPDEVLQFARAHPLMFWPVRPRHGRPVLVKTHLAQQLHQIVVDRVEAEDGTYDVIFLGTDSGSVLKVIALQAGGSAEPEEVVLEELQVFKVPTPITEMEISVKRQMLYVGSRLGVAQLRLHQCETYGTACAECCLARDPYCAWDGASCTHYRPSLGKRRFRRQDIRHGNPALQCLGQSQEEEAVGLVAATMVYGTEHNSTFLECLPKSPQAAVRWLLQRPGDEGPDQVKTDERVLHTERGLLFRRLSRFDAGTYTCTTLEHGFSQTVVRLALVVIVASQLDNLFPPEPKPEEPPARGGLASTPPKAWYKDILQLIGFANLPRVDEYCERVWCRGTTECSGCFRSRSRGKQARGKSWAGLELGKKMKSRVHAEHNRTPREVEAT
row,EC50,Binder
1,> 66.7 µM,B1
2,> 66.7 µM,B2
3,> 66.7 µM,B3
4,> 66.7 µM,B4

# Source: patent publication US20240254222A1
